Source: US20040147432A1 (MERCK, published 2004)
Bridges are numbered along the chain shown (N, C = ends). Where no end group is shown, it is not given here. [ ]: non-standard residue; d: D form.

B1: SEQ. ID. NO. 57 (peptide)
peptide: DFDMLRCMLGRVFRPCYQV
modifications: disulfide 7-16
notes: label prints Tyr^17 while the radioligand is Phe^13, Tyr^19; also called Phe^13, Tyr^17
B2: SEQ. ID. NO. 41 (peptide)
peptide: AFDMLRCMLGRVYRPCWQV
modifications: disulfide 7-16
notes: positions 1-19 as in hMCH; also called Ala^1

target: T1, human MCH-1R (human, UniProt Q99705 1-353); experiment: SPA competition with [125I]-human MCH (Phe13, Tyr19) on receptor membranes
T1 construct: also called MCH-R1
Protocol: (§1) For the SPA-based assay, WGA-PVT beads (NEN Life Sciences Products) were resuspended in Dulbecco's PBS with calcium and magnesium (500 mg beads in 4 ml PBS). […] The suspension was mixed gently for 20 minutes, 12.3 ml of assay buffer and protease inhibitors were added (final concentration given): 2 μg/ml leupeptin, 10 μM phosphoramidon, 40 μg/ml bacitracin, 5 μg/ml aprotinin, 0.1 mM Pefabloc.
(§2) Coated beads were kept on ice until use. […] Binding reactions were allowed to proceed at room temperature for 3 hours. Quantitation was performed by scintillation counting (TopCount device).

T1 sequence (Q99705 whole entry, form in doubt): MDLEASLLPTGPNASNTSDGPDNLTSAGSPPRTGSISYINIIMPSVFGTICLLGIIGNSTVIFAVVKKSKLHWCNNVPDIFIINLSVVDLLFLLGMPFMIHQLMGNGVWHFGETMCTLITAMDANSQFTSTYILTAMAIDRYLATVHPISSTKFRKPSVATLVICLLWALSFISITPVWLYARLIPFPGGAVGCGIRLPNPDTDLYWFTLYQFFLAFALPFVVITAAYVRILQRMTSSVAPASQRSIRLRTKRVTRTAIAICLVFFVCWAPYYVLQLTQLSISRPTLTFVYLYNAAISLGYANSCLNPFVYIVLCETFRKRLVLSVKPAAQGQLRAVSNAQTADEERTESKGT

Going from DFDMLRCMLGRVYRPCWQA (disulfide 7-16, also called Ala^19) [SEQ. ID. NO. 56] to DFDMLACMLGRVYRPCWQV (disulfide 7-16, also called Ala^6) [SEQ. ID. NO. 46], the IC50 rises from 0.4 nM to 4.5 nM (11-fold).

First: DADMLRCMLGRVYRPCWQV (disulfide 7-16, also called Ala^2) [SEQ. ID. NO. 42]
Second: DFDMLRCALGRVYRPCWQV (disulfide 7-16) [SEQ. ID. NO. 47]
The IC50 of the first is 200-fold lower: 0.2 nM for the first, 40.1 nM for the second.

First: DFDMLRCMAGRVYRPCWQV (disulfide 7-16, also called Ala^9) [SEQ. ID. NO. 48]
Second: B1
The IC50 of the first is 1.5-fold higher: 0.9 nM for the first, 0.6 nM for the second. The second is the more potent here.

target: T2, human melanin concentrating hormone type 2 receptor (MCH-2R) (human, UniProt Q969V1 1-340); experiment: as above
T2 construct: also called MCH-R2
Protocol: as §1, §2

T2 sequence (Q969V1 whole entry, form in doubt): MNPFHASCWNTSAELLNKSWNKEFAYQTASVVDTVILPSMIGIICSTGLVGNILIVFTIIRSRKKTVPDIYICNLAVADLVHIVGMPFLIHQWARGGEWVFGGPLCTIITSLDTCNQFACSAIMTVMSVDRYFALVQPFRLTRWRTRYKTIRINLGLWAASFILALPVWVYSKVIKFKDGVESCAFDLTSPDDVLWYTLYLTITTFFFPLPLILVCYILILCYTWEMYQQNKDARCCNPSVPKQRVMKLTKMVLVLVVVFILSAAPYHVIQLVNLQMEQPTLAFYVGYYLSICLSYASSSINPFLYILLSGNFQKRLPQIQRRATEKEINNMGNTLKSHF

Going from B2 to DFDMLRCMLGRVYRPCWQA (disulfide 7-16, also called Ala^19) [SEQ. ID. NO. 56], the IC50 rises from 2.1 nM to 8.7 nM (4.1-fold). The first is the more potent here.

Going from DFDMLACMLGRVYRPCWQV (disulfide 7-16, also called Ala^6) [SEQ. ID. NO. 46] to DADMLRCMLGRVYRPCWQV (disulfide 7-16, also called Ala^2) [SEQ. ID. NO. 42], the IC50 falls from 200 nM to 1.1 nM (180-fold). The second is the more potent here.

First: DFDMLRCALGRVYRPCWQV (disulfide 7-16) [SEQ. ID. NO. 47]
Second: DFDMLRCMAGRVYRPCWQV (disulfide 7-16, also called Ala^9) [SEQ. ID. NO. 48]
The IC50 of the first is 4.2-fold higher: 40 nM for the first, 9.5 nM for the second.

Work on B1 yielded an IC50 of 0.07 nM.

target: T1, human MCH-1R; experiment: cell-based or functional assay

Compared with RCMLGXVYRPC (Harg^11 (homoarginine), also called Harg^11) [SEQ. ID. NO. 24], Ac-RCML[dN]RVYRPC-NH2 (disulfide 2-11 (inferred), also called D-Asn^10) [SEQ. ID. NO. 18] is lower in “Activation % at 10 µM (aequorin functional assay)” value (“Activation % at 10 µM” for short): 72% for the first, 39% for the second.

With Ac-RCML[dS]RVYRPC-NH2 (disulfide 2-11 (inferred), also called D-Ser^10) [SEQ. ID. NO. 19] the “Activation % at 10 µM” value was 47%.

Going from RCMLGXVYRPC (Harg^11 (homoarginine), also called Harg^11) [SEQ. ID. NO. 24] to Ac-RCML[dN]RVYRPC-NH2 (disulfide 2-11 (inferred), also called D-Asn^10) [SEQ. ID. NO. 18], the “EC50 (aequorin functional assay)” value rises from 1200 nM to 3000 nM (2.5-fold).

RCMLGXVYRPC (Arg(NO2)^11 (nitroarginine), also called Arg(NO2)^11) [SEQ. ID. NO. 25] and Ac-RCML[dS]RVYRPC-NH2 (disulfide 2-11 (inferred), also called D-Ser^10) [SEQ. ID. NO. 19] cannot be ordered by “EC50 (aequorin functional assay)” value: > 1000 nM for the first, 2560 nM for the second.

target: T2, human melanin concentrating hormone …; experiment: cell-based or functional assay

Compared with RCMLGXVYRPC (Harg^11 (homoarginine), also called Harg^11) [SEQ. ID. NO. 24], Ac-RCML[dN]RVYRPC-NH2 (disulfide 2-11 (inferred), also called D-Asn^10) [SEQ. ID. NO. 18] is higher in “Activation % at 10 µM” value: 43% for the first, 106% for the second.

Compared with RCMLGXVYRPC (Arg(NO2)^11 (nitroarginine), also called Arg(NO2)^11) [SEQ. ID. NO. 25], Ac-RCML[dS]RVYRPC-NH2 (disulfide 2-11 (inferred), also called D-Ser^10) [SEQ. ID. NO. 19] is higher in “Activation % at 10 µM” value: 39% for the first, 113% for the second.

First: RCMLGXVYRPC (Harg^11 (homoarginine), also called Harg^11) [SEQ. ID. NO. 24]
Second: Ac-RCML[dN]RVYRPC-NH2 (disulfide 2-11 (inferred), also called D-Asn^10) [SEQ. ID. NO. 18]
The “EC50 (aequorin functional assay)” value of the first is higher: > 10000 nM for the first, 24 nM for the second.

Compared with RCMLGXVYRPC (Arg(NO2)^11 (nitroarginine), also called Arg(NO2)^11) [SEQ. ID. NO. 25], Ac-RCML[dS]RVYRPC-NH2 (disulfide 2-11 (inferred), also called D-Ser^10) [SEQ. ID. NO. 19] is lower in “EC50 (aequorin functional assay)” value: > 10000 nM for the first, 7 nM for the second.

target: T1, human MCH-1R; experiment: SPA competition with [125I]-human MCH (Phe13, Tyr19) on receptor membranes; remark: another data set of the same source
Protocol: as §1, §2

Going from RCMLGXVYRPC (Harg^11 (homoarginine), also called Harg^11) [SEQ. ID. NO. 24] to Ac-RCML[dN]RVYRPC-NH2 (disulfide 2-11 (inferred), also called D-Asn^10) [SEQ. ID. NO. 18], the IC50 rises from 6.9 nM to 97 nM (14-fold). The first is the more potent here.

In the case of Ac-RCML[dS]RVYRPC-NH2 (disulfide 2-11 (inferred), also called D-Ser^10) [SEQ. ID. NO. 19], the IC50 is reported as 31 nM.

With RCMLGXVYRPC (Arg(NO2)^11 (nitroarginine), also called Arg(NO2)^11) [SEQ. ID. NO. 25] the “% @ concentration” value was 80 % @ 1 µM.

target: T2, human melanin concentrating hormone …; experiment: as above; remark: another data set of the same source
Protocol: as §1, §2

Going from RCMLGXVYRPC (Harg^11 (homoarginine), also called Harg^11) [SEQ. ID. NO. 24] to Ac-RCML[dN]RVYRPC-NH2 (disulfide 2-11 (inferred), also called D-Asn^10) [SEQ. ID. NO. 18], the IC50 rises from 0.4 nM to 2.3 nM (5.7-fold).

First: RCMLGXVYRPC (Arg(NO2)^11 (nitroarginine), also called Arg(NO2)^11) [SEQ. ID. NO. 25]
Second: Ac-RCML[dS]RVYRPC-NH2 (disulfide 2-11 (inferred), also called D-Ser^10) [SEQ. ID. NO. 19]
The IC50 of the first is 3.1-fold higher: 4.9 nM for the first, 1.6 nM for the second. The second is the more potent here.

target: T1, human MCH-1R; experiment: cell-based or functional assay; remark: another data set of the same source

First: DFDMLRCMLGRVYRPCWQA (disulfide 7-16, also called Ala^19) [SEQ. ID. NO. 56]
Second: DFDMLACMLGRVYRPCWQV (disulfide 7-16, also called Ala^6) [SEQ. ID. NO. 46]
The “Activation % at 10 µM” value of the first is higher: 100% for the first, 81% for the second.

First: DADMLRCMLGRVYRPCWQV (disulfide 7-16, also called Ala^2) [SEQ. ID. NO. 42]
Second: DFDMLRCALGRVYRPCWQV (disulfide 7-16) [SEQ. ID. NO. 47]
The “Activation % at 10 µM” value of the first is higher: 97% for the first, 56% for the second.

Compared with DFDMLRCMAGRVYRPCWQV (disulfide 7-16, also called Ala^9) [SEQ. ID. NO. 48], B1 is higher in “Activation % at 10 µM” value: 96% for the first, 97% for the second.

Going from DFDMLRCMLGRVYRPCWQA (disulfide 7-16, also called Ala^19) [SEQ. ID. NO. 56] to DFDMLACMLGRVYRPCWQV (disulfide 7-16, also called Ala^6) [SEQ. ID. NO. 46], the “EC50 (aequorin functional assay)” value rises from 17.4 nM to 161 nM (9.3-fold).

Compared with DADMLRCMLGRVYRPCWQV (disulfide 7-16, also called Ala^2) [SEQ. ID. NO. 42], DFDMLRCALGRVYRPCWQV (disulfide 7-16) [SEQ. ID. NO. 47] is 74-fold higher in “EC50 (aequorin functional assay)” value: 9.9 nM for the first, 731 nM for the second.

First: DFDMLRCMAGRVYRPCWQV (disulfide 7-16, also called Ala^9) [SEQ. ID. NO. 48]
Second: B1
The “EC50 (aequorin functional assay)” value of the first is 1.8-fold lower: 22 nM for the first, 40 nM for the second.

target: T2, human melanin concentrating hormone …; experiment: cell-based or functional assay; remark: another data set of the same source

First: B2
Second: DFDMLRCMLGRVYRPCWQA (disulfide 7-16, also called Ala^19) [SEQ. ID. NO. 56]
The “Activation % at 10 µM” value of the first is lower: 96% for the first, 99% for the second.

Compared with DFDMLACMLGRVYRPCWQV (disulfide 7-16, also called Ala^6) [SEQ. ID. NO. 46], DADMLRCMLGRVYRPCWQV (disulfide 7-16, also called Ala^2) [SEQ. ID. NO. 42] is higher in “Activation % at 10 µM” value: 76% for the first, 102% for the second.

Going from DFDMLRCALGRVYRPCWQV (disulfide 7-16) [SEQ. ID. NO. 47] to DFDMLRCMAGRVYRPCWQV (disulfide 7-16, also called Ala^9) [SEQ. ID. NO. 48], the “Activation % at 10 µM” value falls from 94% to 92%.

For B1, the “Activation % at 10 µM” value was 92%.

Compared with B2, DFDMLRCMLGRVYRPCWQA (disulfide 7-16, also called Ala^19) [SEQ. ID. NO. 56] is 1.9-fold lower in “EC50 (aequorin functional assay)” value: 114 nM for the first, 58.9 nM for the second.

Compared with DFDMLACMLGRVYRPCWQV (disulfide 7-16, also called Ala^6) [SEQ. ID. NO. 46], DADMLRCMLGRVYRPCWQV (disulfide 7-16, also called Ala^2) [SEQ. ID. NO. 42] is 30-fold lower in “EC50 (aequorin functional assay)” value: 853 nM for the first, 28.6 nM for the second.

DFDMLRCALGRVYRPCWQV (disulfide 7-16) [SEQ. ID. NO. 47] and DFDMLRCMAGRVYRPCWQV (disulfide 7-16, also called Ala^9) [SEQ. ID. NO. 48] are within 1.5-fold of each other in “EC50 (aequorin functional assay)” value: 125 nM for the first, 95.7 nM for the second.

For B1, the “EC50 (aequorin functional assay)” value was 1.5 nM.
